According to the nanobody polyreactivity screen of Harvey et al. (2022):

Experiment: yeast display, Sf9 membrane polyspecificity reagent, FACS + sequencing; frameworks hold sequencing errors
How it was run: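 Using colony PCR, genes from sorted yeast display clones were amplified, then sequenced on MiSeq at 2 × 250 and filtered by CDR length. The clones had been stained with 10% biotinylated, detergent-solubilized Sf9 membrane reagent for 1 hour at 4 °C and sorted by FACS into low and high (top ~1%) gates on anti-HA and streptavidin fluorescence. Polyreactivity labels come from the gate of origin.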

Row | Sequence | polyreactivity (PSR sort gate)
1 | QVQLVESGGGLVQAGGSLRLSCAASGFTFNRYAMGWYRQAPGKERELVAAISRSTATTYYADSVKGRFTISRDNAKNTVYLQMNSLKPEDTAVYYCNAPQRYWPPYGYWGQGTQVTVSS | high polyreactivity
2 | QDQLVESGGGLVQAGGSLRLSCAASGITFAGYARGWYRQAPGKERELVAAITGRGGSTYYADSVKGRFTISRDNAKNTVYLQMNSLKPEDTAVYYCAARSSKTGTGVRFGYWGQGTQVTVSS | high polyreactivity
3 | QVQLVESGGGLVQAGGSLRLSCAASGSTFNQNAMGWYRQAPGKERELVAAITVDGSSTYYADSVKGRFTISRDNAKNTVYLQMNSLKPEDTAVYYCAAGYSARSSGYTGGYDYWGQGTQVTVSS | high polyreactivity
4 | QVQLVESGGGLVQAGGSLRLSRAASGFIFRVYAMGWYRQAPGKERELVAAITGNGVSTYYADSVKGRFTISRDNAKNTVYLQMNSLKPEDTAVYYCATYGRRWYSSRRLDYWGQGTQVTVSS | low polyreactivity
5 | QVQLVESGGGLVQAGGSLRLSCAASGSTFGRNAMGWYRQSPGKERELVAAISSRGGGTYYADSVKGRFTISRDNAKNSVYLQMNSLKPEDTAVYYCAADYVYGYYPKYTYKPSGYWGQGTQVTVTS | high polyreactivity
6 | QVQHLESGGGVVQAGGSIRLSCAASVIIFRAYAMGWYRQAPGKERELVAAITSRGGSTYYADSVKGRFTFSRDNAKNTVYLQMNSLKQEDTAVYYCNAAALADYDYWGQGTQVTLSS | low polyreactivity
7 | QVHLVESGGGLVQAGGSLRLSCAASGRIFKIYAMGWYRQAPGKERELVASISWSGGRTYYADSVKGGFTISRDNAKNTVYVQMNSLKPEDTAVYYCAATFSNSSYIYDFWGQGTHVTVSS | high polyreactivity
8 | QVQLVESGGGLVQAGGSLRLSCAASGRIFTTYAKGWYRQAPGKERDLVAAISQNGGSTYYADSVKGRFTISRDNAKNTVYLPMNSLKPEDTAVYYCKAGAAGYYDYDYWGQGTQVTVSS | low polyreactivity
9 | QVQLVESGGGLVQAGGSLRLSCAASGSIFRNAMGWYRQAPGKERELVATISYRGGSTYYADSVKGRFTISRDNAKNTVYLQMNSLKPEDTAVYYCNADSKLVGYNYWGQGTQVTVSS | low polyreactivity
10 | QVQLVESGGGLVQAGGSLRLSCAASGLTFYIYAMGWYSQAPGKERELVAAVSNGGGNTYYADSVKGRCTISRDNAKNTVYLQMNSLKPEDTAVYYCAAKNDYVYPINPLYYYWGQGTQVTVSS | high polyreactivity
11 | QVQLVESGGGLVQAGGSLRLSCAASGSIFFYYAMGWYRQAPGKERELVAAITKIGVGTFYADSVKGRFTISRDNAKNTVYLQMNSLKPEDTAVYYCNARTAWEGYDYWGQGTQVTVSS | low polyreactivity
12 | QVQLVESGGGLVQAGGSLRLRCAASGSTFSGYAMGWYRKGPGKERELVAAISSGGGSTYYADSVKGRFTISRYNAKNTVYLQMNSLKPEDTDVYYCATGYPWYCGQGTQVTVSS | high polyreactivity
13 | QVQHVESAAGLVQAGCSLRLSGAASGRIFRGYAMGWSRPAHGNEWELVAGITWGGGSTYYADSVKGRFTISRDKAKNTVYLQMNSLKPEDTAVYYCNAVRPRQWWTHFGYWGQGTQVTVSS | high polyreactivity
14 | QVQLVESGGGLVQAGGSLRLSCAASGYIFIFYAMGWYRQAPGKDRELVAAITDSGGSTYYADSVKGRFTISRDNAQNTVYLQKNSLKPEDTAVYYCADPYYFYRDRYRLDYWGQGTQVTVSS | low polyreactivity
15 | QVQLVDSGGGLVQAGGSLRLTCAASGFIFGYNTMGWYRQAPGKERELVAAIDSGGSTNYADSVKGRFTISRDNAKNTDYLQMNSLKPEDTAVYYCARESDWWREFPYDYWGQGTQVNVSS | low polyreactivity
16 | QVQLVESGGGLVQAGGSLRLSCAASGRIFQPNVMGWYRPAPGKERELVAAIRSGSSTYYADSVKGRFTISRDNAKYTVYLQMNCLKPEDTAVYFCATRYRKQYKPYEYWGQGTQVTVSS | high polyreactivity
17 | QVQLVESGGGLVQAGGSLRLSCAASGRTFRYYAMGWYRQAPGKEREFVAAITRSAVSTYYADSVKGRFTISRDNAKNTVYLQMNSLKPEDTAIYYCAVDSSLVKVGFDYWGQGTQVTVSS | high polyreactivity
18 | QVQLVESGGGLVQAGGSLRLSCAASGRTFALNAMGWSRQAPGKERELVAAISWSSGRTYYADSVKGRFTISRDIAKNTVYLQMNSLKPEDTAVYYCAAYAQKRYYWGQGTQVTVSS | high polyreactivity
19 | QVQLVESGGGLVHAGGSLRLSCAASGFTFWYYTMGWYRQAPGKERELVAAITASGGNTYYADSVKGRFTISRDNAKNTVYLQMYSLKPEDTAVYYSNAVSLKFTRKYDYWGQGPQVTVSS | high polyreactivity
20 | QVQLVESGGGLVQAGGSLRLSCAAYGITFSGYDMGWYRQAPGKERELVADITISTGSTYYADSVKGRFTISRDNAKNTVYLEMNSLKAEDTAVYYWNADSWFPDHFSYYGPYDYWGQGSQVTVSS | low polyreactivity
21 | QVQLVESGGGLVQAGGSLRLSCAASGFIFSRYVMGWYRQAPGKERELVAVISYRGGSTYYADSVKGRFTISRDNAKNTVYVQMNSLKPEDTAVYYCNADTIPDGEDRYDYWGHGTQVTVSS | low polyreactivity
22 | QVQLVESGGGLVQAGGSLRLSCAASGFTFWTYAMGWYRQAPGKERELVAAIDSGGSTYYADSVKGRFTITRDNAKNTVYLQMNSLKPEDTAVYYCNAGPSVTSGYDYDYWGQGTQVTVSS | low polyreactivity

Row | Sequence | polyreactivity (PSR sort gate)
23 | QVQLVESGGGLVQAGGSLRLSCAASGSILVSNDMGWYRQAPGKERELVAAISWSGGSTYYADSVKGRFTISRDNAKNTVYLQMNSLKPEDTAVYYCATGVALRYGYWGQGTQVTVSS | low polyreactivity
24 | QVQLVESGGGLVQAGGSLRLSCAPSGSIFPSYAMGWYRQAPGKERELVAAISRSAGSTYYADSVKGRFTISRDNAKNTVYLQMNSLKPEDPAVYYCAADGYSSRYRYDYWGQGTQVTVSS | low polyreactivity
25 | QVQLVESGGGLVQAGGSIRLSCAASGRTFACNSMGCYRQAPGKERELVARIRSSGSTYYADSVKGRFTISRDNAKNTVYLQMNSLKPEDTAVYYCAADIRFWYGYYYWGQGTQVTVSS | high polyreactivity
26 | QVQLEESGGGLVQAGVSLRLSCAASGRIFLSNAMGWYRQAPGKEREFVAAISWRGGSTYYADSVKGRFTISRDNAKNTVYLQMNSLKPEDTAVYYCAVDVRYYYGRSYDYWGQGTQVTVSS | high polyreactivity
27 | QVQLVESGGGLVQAGGSLRLSCAASGSTSYRNAMGWYRQAPGIEREFVAAISWSGGSTYYADSVKGRFTISRDNAKNTVYLQMNSLKPEDTAVYYCATTVTQWGQGTQVTVSS | low polyreactivity
28 | QVQLVESGGGLVQAGGSLRLSCAASGSTFGLYAMGWYRQAPVKEREFVAAISWRTGSTYYADSVKGRFTISRDTAKNTVYLQMNSLKPEDTAVYYCNAPYFYSRYSPDDYWGQGTQVTVSS | high polyreactivity
29 | QVQRVESGRGLVQAGGSLRLSCAASGRTFRINAMGWYRQSPGKERELVASINSGGRTYYADSVKGRFTISRDNAKNTVYLQMNSLKPEDTAVYYCAAAGGRTGDYWGQGTQVTGSS | high polyreactivity
30 | QVQLVESGGGLVQAGGSLRLSCAASGSILRPNAMGWYRQAPGKERELVAAITTSGGSTYYADSVKGRFTISRDNAKNTVYLQMNSLKPEDTAVYYCAARRQRDRYGYWGQGTQVTVSS | high polyreactivity
31 | QVQLVESGGGLVQAGGSLRLSCAASGRTFVTNAMGWYRQAPGKERELVATIRFSGGGTYYAVSVKGRFTISRDNAKNTVYLQMNSLKPEDTAVYYCNADSIDPFLYDYWGQGTQVTVSS | low polyreactivity
32 | QVQLVESGGVLVQAGGSLRLSCAASGSTFFVYAMGWYRQAPGKERELVAAISSRGSTYYADSVKGRFTISRDNAKNTVYLQMNSLKPEDTAVYYCAAEYTVSYLRMDYWGQGTQVTVSS | low polyreactivity
33 | QDQLVESGGGLLQAGGSLRLSCAASGYTFPIYAMGWYRQAPGKERELVAGISKNGGSTYYADSVKGRFTISRDNAKNTVYLQMNSLKPEDTEVYYCNASAWGRPYYRGSYFVFPGYEYWGQGTQVTVSS | low polyreactivity
34 | QVQLVESGGGLVQAGGSLRFSCAASGSIFSWYAMGGYRQAPGKERELVAAITWTGGSTYYADSVKGRFTISRDNAKNTVYLQMNSLKPEETAVYYCAARRVVYRKYGDRARWYNYWGHGTQVTVSS | high polyreactivity
35 | QVQLVESGGGLVQAGGSLRLSCAASGIILQKYTMGWYRQAPGKERELVAASTRSGGSTYYADSVKGRFTISRDNAKNTVYLQMNSLKPEDTAVYYCYGYEYWGQGTQVTVSS | high polyreactivity
36 | QVQLVESGGGLVQAGGSLRLSCAASGRTFPNYAMGWYRQAPGKERELVAAITRGVRTHYADSVKGRFTISRDNAKNTVYLQLNSLKQEDTAVYYCARSYRSDGSRFGYWGQGTQVTVSS | low polyreactivity
37 | QVQLVESGGGLVQAGGSLRLSCAASGIIFSDYAMGWYRQAPGKERELVAAISSNAGTTSYADSVKGRFTISRDNAKNTVYLQMNSLKPEDTAVYYCNADSSYPPGYDYCGQGTQVTVSS | low polyreactivity
38 | QDQLVESGGGLVQAGGSLRLSCAASGSTLFYAMGWYRQAPGKERELVAAISWSGGSTRYADSVKGRFTISRDNAKNTVYLQMNSLKPEDTAVYYCNRDPDTWGYQPDWYYGAYDYWGQGTQVTVSS | low polyreactivity
39 | QVPLVESGGGLVQAGGILRLSCAASGRIFLPYAMGWYRQAPGQERELVAAITSSDGSTHYADSVKGRFTISRDNAQNTVYLQMNSLKPEDTAVYYCNAARATYYYYLDDYWGQGTQVTVSS | low polyreactivity
40 | QVQLVESGGGLVHAGGSLRLSCAASGSIFPPYAMGWYRQAPVKERELVAAITRSGGSTYYADSVKGRFTISRDNAKNTVYLQLNSLIPEDTAVSDCADRYPGGYGYWGQGTQVTVSS | high polyreactivity
41 | QVQLVESGGGLVQAGGSLRLSCAASGSIFRTNAMGWYRQAPGKEREFVASISSDSGNTYYADSVKGRFTISRDNAKNTVYLQMNSLKPEDTAVYYCARRKVRYWSYRAANYYWGQGTQVTVSS | low polyreactivity
42 | QVQLVESGGGLVQAGGSLRLSCAASGFTFKRYAMGWYRQAPGKERELVAVISSGGSTYYADSVKGRFTISRDNAKNCVYLQMNRLKPEDTAVYYCNAYIGGSSWHTALDYWGQGTQVTVSS | high polyreactivity
43 | QVQLVESGGGLVQAGGSLRLSCAASGFTFTSNVMGWYREAPGKEWELVADISASDGRTYYADSVKGRFTISRDNAKNTVYLQMNSLKREDTAVYYCNVSSRRLRGLDYWGQGTQVTVSS | low polyreactivity
